In paper PMC3961267:

System: P266L T7 RNA polymerase (bacteriophage T7)
Test: fluorescence anisotropy
Details: Buffer A: 50 mM Tris-acetate, 50 mM sodium acetate, 10 mM magnesium acetate, 5 mM DTT, 25 C; pH not stated

Substance: TAMRA-labeled T7 consensus promoter DNA
- Kd: 3.6 nM
